Biological target: recombinant CaM (calmodulin) (UniProt P0DP23 1-149)
Assay: pull-down

Binder | binding result
GST-mGluR1-Cprox with mGluR5 888-EKSTRGQHL-896 in place of 901-…-909 (domain or fragment) PERNVRSAFTTSDVVRMHVGDGKLPCRSNTFLNIFRRKKPGAGNANSNGKSVSWSEPGGEKSTRGQHLWQRLSVHVKTNETACNQTAVIKPLTKSYQGSGKSLTFSDASTKTLYNVEE | binds
GST-mGluR1 V909L (domain or fragment) PERNVRSAFTTSDVVRMHVGDGKLPCRSNTFLNIFRRKKPGAGNANSNGKSVSWSEPGGRQAPKGQHLWQRLSVHVKTNETACNQTAVIKPLTKSYQGSGKSLTFSDASTKTLYNVEE | binds
GST-mGluR5-Cprox with EKST exchanged (domain or fragment) PERNVRSAFTTSTVVRMHVGDGKSSSAASRSSSLVNLWKRRGSSGETLSSNGKSVTWAQNRQAPRGQHLWQRLSVHINKKENPNQTAVIKPFPKSTENRGPGAAAGGGSGPGVAGAG | binds

Source: paper PMC3111228 (The Journal of neuroscience : the official journal of the …, 2011)
